Reference: patent US20170306038A1 (published 2017)
Positions count from the first letter of the chain named.

T1: FAS
T1 construct: not shown: His tag, implied by the HisGrab nickel plate; The construct's exact limits are also wanting
T1 chain: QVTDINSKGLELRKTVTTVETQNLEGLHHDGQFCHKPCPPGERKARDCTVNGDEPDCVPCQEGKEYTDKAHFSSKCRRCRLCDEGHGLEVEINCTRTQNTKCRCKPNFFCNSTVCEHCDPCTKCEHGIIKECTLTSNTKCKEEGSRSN

T2: human GITR on cells (human, UniProt Q9Y5U5 27-241)
T2 construct: also called hGITR; 293 cells stably transfected with human GITR
T2 sequence: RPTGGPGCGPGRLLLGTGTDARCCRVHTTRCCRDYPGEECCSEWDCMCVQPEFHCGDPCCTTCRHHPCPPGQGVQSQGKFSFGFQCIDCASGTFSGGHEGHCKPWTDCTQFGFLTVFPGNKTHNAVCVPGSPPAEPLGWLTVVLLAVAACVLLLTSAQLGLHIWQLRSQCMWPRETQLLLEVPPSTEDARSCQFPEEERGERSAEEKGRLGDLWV

B1: MAB4 (IgG1 kappa) (antibody, V domains shown)
VH: EVQLVESGGGLVQSGGSLRLSCAASGFSLSSYGVDWVRQAPGKGLEWVGVIWGGGGTYYASSLMGRFTISRDNSKNTLYLQMNSLRAEDTAVYYCAKHAYGHDGGFAMDYWGQGTLVTVSS
VL: EIVMTQSPATLSVSPGERATLSCRASESVSSNVAWYQQRPGQAPRLLIYGASNRATGIPARFSGSGSGTDFTLTISRLEPEDFAVYYCGQSYSYPFTFGQGTKLEIKR
B2: MAB5 (IgG1 kappa) (antibody, V domains shown)
VH: B1 VH with V48L, A60T
VL: B1 VL
B3: MAB7 (IgG1 kappa) (antibody, V domains shown)
VH: B1 VH with K97R
VL: B1 VL
notes: MAB4 with the glycation site KH changed to RH
B4: recombinant human GITR ligand (GITR-L) (ligand, UniProt Q9UNG2 52-177, looked up)
chain: ETAKEPCMAKFGPLPSKWQMASSEPPCVNKVSDWKLEILQNGLYLIYGQVAPNANYNDVAPFEVRLYKNKDMIQTLTNKSKIQNVGGTYELHVGDTIDLIFNSEHQVLKNNTYWGIILLANPQFIS

Legend:
[1] = molecular target: T1, FAS; assay: specificity ELISA on bacterial lysates with TNFRSF members, HisGrab nickel plate
Experimental: For the specificity ELISA, a crude cell lysate was made from bacteria expressing members of the TNFRSF family. To prevent nonspecific binding to the plate 50 μL of 5% BSA was added per mL of bacterial lysate. […] The plate was then rinsed three times with PBST, then MAB was diluted to 0.5 μg/mL in 10% FBS in PBS and 100 μL was added to each well. The plate was incubated for 1 hour at room temperature and then rinsed three times with PBST. Anti-human kappa antibody (Sigma #A7164) conjugated to HRP was diluted 1:5000 in 1:1 PBST: 10% FBS in PBS and 100 μL added to each well. The plate was incubated for 1 hour at room temperature, and then washed three times with PBST. 100 μL of SureBlue TMB substrate was added to each well and the plate was incubated for about 10 min at room temperature before stopping the reaction with 100 μL/well of 2N H₂SO₄.

[2] = molecular target: cyno GITR (cGITR) (cynomolgus monkey); assay: Biacore
[3] = molecular target: cyno GITR (cGITR) (cynomolgus monkey); assay: Biacore; remark: listed apart in the source
[4] = molecular target: T2, human GITR on cells; assay: FACS competition on HEK293 cells stably expressing hGITR: human GITR ligand titrated first, then 4 nM MAB7 as the competitor read out with PE anti-human
Experimental: The ability of MAB to block ligand binding was assessed using HEK293 NFκB reporter parental cells and hGITR stable cells were used in competition binding assays and FACS analysis. Briefly, harvested cells were plated 1×10⁶ cells per mL, 100 μL per well to a 96 well round bottom FACS plate (Corning), then resuspended in 200 μL of cold FACS buffer (1×PBS+1% FBS-HI+0.1% sodium azide) per well. […] Plates were incubated for 1 hour on ice protected from light, cells washed, then prepared 4 nM isotype control or MAB solutions were prepared and added to appropriate wells at 100 μL per well and plates were incubated for 1 hour on ice protected from light, cells washed, then PE-conjugated goat-anti-human detection antibody (Jackson ImmunoResearch) prepared at 1:100 dilution in FACS buffer was added at 100 μL per well and plates were incubated for 30 minutes on ice protected from light. Cells were washed in FACS buffer then cells were fixed with 100 μL per well of BD CytoFix (BD Biosciences) and incubated for further 15 minutes on ice protected from light.

Binder | binding result [1] | Kd [2] [nM] | fold lower binding affinity for cyno GITR against human GITR [3] [fold] | IC50 (read off the curve) [4]
B1 | no binding (tested: 0.5 µg/mL (not on the sheet)) | 1.78 | 2 to 3 | –
B2 | no binding (tested: 0.5 µg/mL (not on the sheet)) | 1.87 | 2 to 3 | –
B3 | – | 3.67 | – | –
B4 | – | – | – | ~0.2 molar ratio (Human GITR Ligand to MAB7)
